± gives the standard deviation of the averaged measurements.
Assay: total protein half-life in vivo (active degradation + dilution); higher = more stable protein
[1] = E. coli NCM3722 delta-clpP delta-lon delta-hslV, growth: N-lim chemostat, doubling time 6 h
[2] = E. coli NCM3722 delta-clpP, growth: N-lim chemostat, doubling time 6 h
[3] = E. coli NCM3722 delta-hslV, growth: N-lim chemostat, doubling time 6 h
[4] = E. coli NCM3722 delta-lon, growth: N-lim chemostat, doubling time 6 h
[5] = E. coli NCM3722 delta-smpB, growth: N-lim chemostat, doubling time 6 h
[6] = wild type E. coli NCM3722, growth: C-lim chemostat, doubling time 6 h
[7] = wild type E. coli NCM3722, growth: N-lim chemostat, doubling time 6 h
[8] = wild type E. coli NCM3722, growth: N-lim chemostat, doubling time 12 h
[9] = wild type E. coli NCM3722, growth: P-lim chemostat, doubling time 6 h
[10] = wild type E. coli NCM3722, growth: P-lim chemostat, doubling time 12 h
[11] = wild type E. coli NCM3722, growth: C-lim chemostat, doubling time 12 h
[12] = wild type E. coli NCM3722, growth: C-lim chemostat, doubling time 3 h

Sequence	total protein half-life in vivo [1] [h]	total protein half-life in vivo [2] [h]	total protein half-life in vivo [3] [h]	total protein half-life in vivo [4] [h]	total protein half-life in vivo [5] [h]	total protein half-life in vivo [6] [h]	total protein half-life in vivo [7] [h]	total protein half-life in vivo [8] [h]	total protein half-life in vivo [9] [h]	total protein half-life in vivo [10] [h]	total protein half-life in vivo [11] [h]	total protein half-life in vivo [12] [h]
MTDNPNKKTFWDKVHLDPTMLLILLALLVYSALVIWSASGQDIGMMERKIGQIAMGLVIMVVMAQIPPRVYEGWAPYLYIICIILLVAVDAFGAISKGAQRWLDLGIVRFQPSEIAKIAVPLMVARFINRDVCPPSLKNTGIALVLIFMPTLLVAAQPDLGTSILVALSGLFVLFLSGLSWRLIGVAVVLVAAFIPILWFFLMHDYQRQRVMMLLDPESDPLGAGYHIIQSKIAIGSGGLRGKGWLHGTQSQLEFLPERHTDFIFAVLAEELGLVGILILLALYILLIMRGLWIAARAQTTFGRVMAGGLMLILFVYVFVNIGMVSGILPVVGVPLPLVSYGGSALIVLMAGFGIVMSIHTHRKMLSKSV [P0ABG7]	6.32 ± 0.84	6.24 ± 0.34	5.73 ± 0.093	5.59 ± 0.48	5.99 ± 0.59	5.94 ± 0.34	6.47 ± 0.14	11.5 ± 1.2	5.99 ± 0.21	11.9 ± 0.4		
MKITLLVTLLFGLVFLTTVGAAERTLTPQQQRMTSCNQQATAQALKGDARKTYMSDCLKNSKSAPGEKSLTPQQQKMRECNNQATQQSLKGDDRNKFMSACLKKAA [P0AFM4]	6.55	5.82 ± 1.1							5.5 ± 1.8	12.8 ± 2.9	6.86 ± 1.4	
MPYKTKSDLPESVKHVLPSHAQDIYKEAFNSAWDQYKDKEDRRDDASREETAHKVAWAAVKHEYAKGDDDKWHKKS [P0AE63]	6.81 ± 0.52	4.36 ± 0.59		5.1 ± 0.19	5.01 ± 2.3	5.53	3.3 ± 0.35	6.77 ± 0.7	4.41	7.39 ± 1.7	6.09	
MLCVKNVSLRLPESRLLTNVNFTVDKGDIVTLMGPSGCGKSTLFSWMIGALAEQFSCTGELWLNEQRIDILPTAQRQIGILFQDALLFDQFSVGQNLLLALPATLKGNARRNAVNDALERSGLEGAFHQDPATLSGGQRARVALLRALLAQPKALLLDEPFSRLDVALRDNFRQWVFSEVRALAIPVVQVTHDLQDVPADSSVLDMAQWSENYNKLR	6.284 ± 0.01	5.73 ± 0.066	6.47 ± 0.07	6.28 ± 0.58	5.27 ± 0.077	6.13 ± 0.53	6.45 ± 0.98	12.7 ± 0.24	5.99 ± 0.28	13.7 ± 0.89	10.8 ± 2.7	3.11 ± 0.35
MNIYRLSFVSCLVMAMPCAMAVEFNLNVLDKSMRDRIDISLLKEKGVIAPGEYFVSVAVNNNKISNGQKINWQKKGDKTIPCINDSLVDKFGLKPDIRQSLPQIDRCIDFSSRPEMLFNFDQANQQLNISIPQAWLAWHSENWAPPSTWKEGVAGVLMDYNLFASSYRPQDGSSSTNLNAYGTAGINAGAWRLRSDYQLNKTDSEDNHDQSGGISRTYLFRPLPQLGSKLTLGETDFSSNIFDGFSYTGAALASDDRMLPWELRGYAPQISGIAQTNATVTISQSGRVIYQKKVPPGPFIIDDLNQSVQGTLDVKVTEEDGRVNNFQVSAASTPFLTRQGQVRYKLAAGQPRPSMSHQTENETFFSNEVSWGMLSNTSLYGGLLISDDDYHSAAMGIGQNMLWLGALSFDVTWASSHFDTQQDERGLSYRFNYSKQVDATNSTISLAAYRFSDRHFHSYANYLDHKYNDSDAQDEKQTISLSVGQPITPLNLNLYANLLHQTWWNADASTTANITAGFNVDIGDWRDISISTSFNTTHYEDKDRDNQIYLSISLPFGNGGRVGYDMQNSSHSTIHRMSWNDTLDERNSWGMSAGLQSDRPDNGAQVSGNYQHLSSAGEWDISGTYAASDYSSVSSSWSGSFTATQYGAAFHRRSSTNEPRLMVSTDGVADIPVQGNLDYTNHFGIAVVPLISSYQPSTVAVNMNDLPDGVTVAENVIKETWIEGAIGYKSLASRSGKDVNVIIRNASGQFPPLGADIRQDDSGISVGMVGEEGHAWLSGVAENQLFTVVWGEQSCIIHLPERLEDTTKRLILPCH	3.41 ± 0.16	2.97				4.23	2.94	3.79	3.94	11 ± 0.78		
MTTRQHSSFAIVFILGLLAMLMPLSIDMYLPALPVISAQFGVPAGSTQMTLSTYILGFALGQLIYGPMADSFGRKPVVLGGTLVFAAAAVACALANTIDQLIVMRFFHGLAAAAASVVINALMRDIYPKEEFSRMMSFVMLVTTIAPLMAPIVGGWVLVWLSWHYIFWILALAAILASAMIFFLIKETLPPERRQPFHIRTTIGNFAALFRHKRVLSYMLASGFSFAGMFSFLSAGPFVYIEINHVAPENFGYYFALNIVFLFVMTIFNSRFVRRIGALNMFRSGLWIQFIMAAWMVISALLGLGFWSLVVGVAAFVGCVSMVSSNAMAVILDEFPHMAGTASSLAGTFRFGIGAIVGALLSLATFNSAWPMIWSIAFCATSSILFCLYASRPKKR	7.89								6.0641 ± 0.0035	11.8		
MIENRPWLTIFSHTMLILGIAVILFPLYVAFVAATLDKQAVYAAPMTLIPGTHLLENIHNIWVNGVGTNSAPFWRMLLNSFVMAFSITLGKITVSMLSAFAIVWFRFPLRNLFFWMIFITLMLPVEVRIFPTVEVIANLQMLDSYAGLTLPLMASATATFLFRQFFMTLPDELVEAARIDGASPMRFFCDIVFPLSKTNLAALFVITFIYGWNQYLWPLLIITDVDLGTTVAGIKGMIATGEGTTEWNSVMVAMLLTLIPPVVIVLVMQRAFVRGLVDSEK									6.34	12.6 ± 2.1	14.5	
MGLMNAFDSQTEDSSPAIGRNLRSRPLARKKLSEMVEEELEQMIRRREFGEGEQLPSERELMAFFNVGRPSVREALAALKRKGLVQINNGERARVSRPSADTIIGELSGMAKDFLSHPGGIAHFEQLRLFFESSLVRYAAEHATDEQIDLLAKALEINSQSLDNNAAFIRSDVDFHRVLAEIPGNPIFMAIHVALLDWLIAARPTVTDQALHEHNNVSYQQHIAIVDAIRRHDPDEADRALQSHLNSVSATWHAFGQTTNKKK [P0A8W0]	5.49 ± 0.12	5.05 ± 0.14	3.63 ± 0.045	4.53 ± 0.93	3.48 ± 0.66	4.17 ± 0.12	3.95 ± 0.16	5.27 ± 0.066	3.59 ± 0.14	6.29 ± 0.19	6.39 ± 0.4	2.383 ± 0.0064
